# In PMC9722645 (Structure (London, England : 1993), 2022):
# Non-standard residues stand in square brackets, D forms with d. pY = N[C@@H](Cc1ccc(OP(=O)(O)O)cc1)C(=O)O
# T1: p120RasGAP SH2-SH3-SH2 region (residues 174–444) (human, UniProt P20936 174-444, C236S | C261S | C372S | C402S)
# T1 sequence (looked up): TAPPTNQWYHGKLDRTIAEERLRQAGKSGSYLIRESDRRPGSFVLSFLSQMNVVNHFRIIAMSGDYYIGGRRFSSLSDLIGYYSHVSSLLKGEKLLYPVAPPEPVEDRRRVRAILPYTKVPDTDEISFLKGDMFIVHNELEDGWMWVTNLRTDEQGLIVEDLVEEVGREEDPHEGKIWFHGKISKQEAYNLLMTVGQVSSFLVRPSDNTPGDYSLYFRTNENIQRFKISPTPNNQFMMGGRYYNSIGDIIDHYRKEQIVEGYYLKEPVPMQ
# B1: p120RasGAP: key regulatory protein of the Ras subfamily of small guanine-nucleotide binding GTPases (protein)
# chain: T1 sequence (looked up)
# modifications: left off: His6, N-terminal, cleaved
# Assays:
# [1] = target: p190RhoGAP pY1087 peptide (Homo sapiens) (UniProt Q9NRY4); assay: ITC; conditions: cited from earlier work
# [2] = target: p190RhoGAP pY1105 peptide (Homo sapiens) (UniProt Q9NRY4); assay: ITC; conditions: cited from earlier work
# Ras = conditions: ref [3],[4]; cited from earlier work
# [3] = target: T1, p120RasGAP SH2-SH3-SH2 region (residues …); assay: ITC
# Chain of p190RhoGAP pY1087 peptide (Homo sapiens) (Q9NRY4 whole entry): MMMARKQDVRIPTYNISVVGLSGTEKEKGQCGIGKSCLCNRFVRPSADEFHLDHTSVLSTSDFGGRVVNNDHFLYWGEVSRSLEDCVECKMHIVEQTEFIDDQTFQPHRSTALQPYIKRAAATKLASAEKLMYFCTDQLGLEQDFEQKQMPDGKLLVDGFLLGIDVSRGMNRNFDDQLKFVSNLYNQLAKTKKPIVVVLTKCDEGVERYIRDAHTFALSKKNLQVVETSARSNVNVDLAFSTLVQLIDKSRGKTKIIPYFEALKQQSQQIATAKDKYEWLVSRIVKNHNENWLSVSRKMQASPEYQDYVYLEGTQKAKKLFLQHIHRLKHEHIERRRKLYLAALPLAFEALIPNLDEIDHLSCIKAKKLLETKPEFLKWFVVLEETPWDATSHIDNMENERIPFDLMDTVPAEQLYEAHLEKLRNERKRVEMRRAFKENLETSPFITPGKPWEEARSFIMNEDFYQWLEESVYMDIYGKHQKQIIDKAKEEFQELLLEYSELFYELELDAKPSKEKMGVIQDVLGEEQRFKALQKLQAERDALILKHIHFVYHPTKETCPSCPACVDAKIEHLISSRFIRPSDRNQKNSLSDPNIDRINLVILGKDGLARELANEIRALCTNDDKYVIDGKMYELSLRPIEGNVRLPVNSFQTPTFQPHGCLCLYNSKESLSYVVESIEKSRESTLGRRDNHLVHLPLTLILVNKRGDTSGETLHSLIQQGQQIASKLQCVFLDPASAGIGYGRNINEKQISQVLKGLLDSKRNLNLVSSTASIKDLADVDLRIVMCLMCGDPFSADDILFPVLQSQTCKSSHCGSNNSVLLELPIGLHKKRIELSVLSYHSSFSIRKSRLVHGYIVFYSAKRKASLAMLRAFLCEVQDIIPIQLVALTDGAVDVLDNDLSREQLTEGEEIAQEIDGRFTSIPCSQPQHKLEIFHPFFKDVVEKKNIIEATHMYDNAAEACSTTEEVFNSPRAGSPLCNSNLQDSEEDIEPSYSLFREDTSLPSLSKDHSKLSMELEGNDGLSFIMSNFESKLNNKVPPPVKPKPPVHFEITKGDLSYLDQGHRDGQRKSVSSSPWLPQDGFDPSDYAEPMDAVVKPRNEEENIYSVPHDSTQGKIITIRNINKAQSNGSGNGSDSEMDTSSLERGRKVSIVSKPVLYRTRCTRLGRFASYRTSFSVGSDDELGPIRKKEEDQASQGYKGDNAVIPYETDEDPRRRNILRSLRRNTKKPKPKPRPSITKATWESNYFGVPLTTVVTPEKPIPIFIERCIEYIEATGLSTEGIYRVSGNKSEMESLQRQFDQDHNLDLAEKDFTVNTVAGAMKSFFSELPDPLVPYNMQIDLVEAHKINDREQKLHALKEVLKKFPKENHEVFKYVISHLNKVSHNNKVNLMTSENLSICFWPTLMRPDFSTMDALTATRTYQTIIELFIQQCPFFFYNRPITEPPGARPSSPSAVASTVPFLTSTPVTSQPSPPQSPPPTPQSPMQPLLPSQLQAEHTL
# Chain of p190RhoGAP pY1105 peptide (Homo sapiens) (Q9NRY4 whole entry): as above
molecule,measurement,setting,value
p120RasGAP C-SH2 (from UniProt P20936),Kd,[1],150 nM
p120RasGAP N-SH2 (from UniProt P20936),Kd,[2],300 nM
B1,enhancement of GTPase activity of Ras,Ras,two to five orders of magnitude
"Ac-DPSD[pY]AEPMDAVVKPRNEEENI[pY]SVPHDS-NH2 [doubly-phosphorylated p190RhoGAP-A peptide (residues 1083–1111, pY1087 and pY1105)]",dH,[3],-31.1 kcal/mol
